Source: the supplement of paper PMC10065799, “High-throughput profiling of sequence recognition by tyrosine kinases and SH2 domains using bacterial peptide display” (eLife, 2023)

Tests used:
c-Src SH2 = test: SH2 binding enrichment of the phosphorylated peptide, bacterial display (enrichment ratio); higher = better substrate or ligand; peptides without Tyr show the background
SHP2-C SH2 = test: as above
Grb2 SH2 = Grb2 SH2 (UniProt P62993); test: as above
EPHB1 = EPHB1 (UniProt P54762); test: phosphorylation enrichment, bacterial display (enrichment ratio); higher = better substrate or ligand; peptides without Tyr show the background
AncSZ = test: as above
MERTK = MERTK (UniProt Q12866); test: as above
EPHB2 = EPHB2 (UniProt P29323); test: as above
Fes = Fes (UniProt P07332); test: as above
Fer (mouse) = test: as above
FGFR1 = FGFR1 (UniProt P11362); test: as above
Hck = Hck (UniProt P08631); test: as above
Fyn = Fyn (UniProt P06241); test: as above
FGFR3 = FGFR3 (UniProt P22607); test: as above
c-Src = test: as above
c-Abl (mouse) = test: as above
Jak2 = Jak2 (UniProt O60674); test: as above
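Throughout, for SH2 binding enrichment of the phosphorylated peptide, bacterial display: peptide library displayed on the E. coli surface as eCPX fusions, selected cells deep-sequenced, score is each peptide's frequency after selection divided by its frequency in the input.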
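Throughout, for phosphorylation enrichment, bacterial display: 11-residue human phosphosite peptides and single-mutation variants displayed on the E. coli surface, counted by deep sequencing, each peptide's frequency after selection divided by its frequency in the unselected input library; frequency after pTyr selection over input frequency; kinase dosed for 20-30% of maximal phosphorylation in three min.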

Sequence of FGFR1 (P11362 whole entry, looked up): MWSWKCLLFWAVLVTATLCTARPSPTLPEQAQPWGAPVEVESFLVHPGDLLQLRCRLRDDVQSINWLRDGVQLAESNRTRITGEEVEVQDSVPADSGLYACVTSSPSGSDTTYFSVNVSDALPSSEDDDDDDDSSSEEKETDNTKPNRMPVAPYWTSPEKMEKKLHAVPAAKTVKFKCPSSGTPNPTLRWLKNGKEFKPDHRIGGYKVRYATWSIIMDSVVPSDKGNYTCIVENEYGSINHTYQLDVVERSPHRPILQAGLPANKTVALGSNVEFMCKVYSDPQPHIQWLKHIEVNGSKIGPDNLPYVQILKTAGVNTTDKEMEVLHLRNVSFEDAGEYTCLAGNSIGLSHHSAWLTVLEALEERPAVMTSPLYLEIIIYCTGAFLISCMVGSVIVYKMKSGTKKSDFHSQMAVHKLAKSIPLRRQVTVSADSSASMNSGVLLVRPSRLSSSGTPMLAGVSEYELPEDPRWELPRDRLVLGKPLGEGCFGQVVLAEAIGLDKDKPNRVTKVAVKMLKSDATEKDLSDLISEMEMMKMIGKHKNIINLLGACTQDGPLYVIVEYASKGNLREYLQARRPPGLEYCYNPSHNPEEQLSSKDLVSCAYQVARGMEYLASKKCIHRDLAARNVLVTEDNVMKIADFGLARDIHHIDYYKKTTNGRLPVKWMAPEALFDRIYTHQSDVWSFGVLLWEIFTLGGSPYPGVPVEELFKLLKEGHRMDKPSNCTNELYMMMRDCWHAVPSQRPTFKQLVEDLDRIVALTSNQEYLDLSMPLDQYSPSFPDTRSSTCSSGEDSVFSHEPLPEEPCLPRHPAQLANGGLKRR
Sequence of MERTK (Q12866 whole entry, looked up): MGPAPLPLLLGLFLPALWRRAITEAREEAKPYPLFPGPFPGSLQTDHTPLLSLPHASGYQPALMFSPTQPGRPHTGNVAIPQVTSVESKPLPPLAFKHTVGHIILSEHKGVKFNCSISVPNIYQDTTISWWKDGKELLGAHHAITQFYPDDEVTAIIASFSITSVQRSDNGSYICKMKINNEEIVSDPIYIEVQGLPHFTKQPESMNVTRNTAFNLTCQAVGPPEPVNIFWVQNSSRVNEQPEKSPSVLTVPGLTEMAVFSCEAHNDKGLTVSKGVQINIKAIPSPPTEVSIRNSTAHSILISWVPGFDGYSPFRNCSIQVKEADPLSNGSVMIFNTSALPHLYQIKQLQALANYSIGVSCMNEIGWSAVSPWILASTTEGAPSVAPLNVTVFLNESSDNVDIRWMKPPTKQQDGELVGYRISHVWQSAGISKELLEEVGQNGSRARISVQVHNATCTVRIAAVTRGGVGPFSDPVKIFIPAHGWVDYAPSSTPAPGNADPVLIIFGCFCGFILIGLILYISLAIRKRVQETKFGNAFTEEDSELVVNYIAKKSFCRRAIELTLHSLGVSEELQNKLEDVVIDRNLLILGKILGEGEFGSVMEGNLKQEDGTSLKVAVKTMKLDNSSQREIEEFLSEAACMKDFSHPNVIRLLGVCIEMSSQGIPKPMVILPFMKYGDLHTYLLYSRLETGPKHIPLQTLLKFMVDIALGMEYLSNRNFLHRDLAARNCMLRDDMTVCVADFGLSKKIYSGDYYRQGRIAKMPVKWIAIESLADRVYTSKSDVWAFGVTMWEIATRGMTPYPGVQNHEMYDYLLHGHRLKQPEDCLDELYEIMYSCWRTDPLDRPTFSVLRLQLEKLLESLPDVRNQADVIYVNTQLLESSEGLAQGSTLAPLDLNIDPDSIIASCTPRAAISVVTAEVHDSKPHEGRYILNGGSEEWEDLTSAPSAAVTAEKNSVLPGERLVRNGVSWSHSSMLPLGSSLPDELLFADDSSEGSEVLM
Sequence of FGFR3 (P22607 whole entry, looked up): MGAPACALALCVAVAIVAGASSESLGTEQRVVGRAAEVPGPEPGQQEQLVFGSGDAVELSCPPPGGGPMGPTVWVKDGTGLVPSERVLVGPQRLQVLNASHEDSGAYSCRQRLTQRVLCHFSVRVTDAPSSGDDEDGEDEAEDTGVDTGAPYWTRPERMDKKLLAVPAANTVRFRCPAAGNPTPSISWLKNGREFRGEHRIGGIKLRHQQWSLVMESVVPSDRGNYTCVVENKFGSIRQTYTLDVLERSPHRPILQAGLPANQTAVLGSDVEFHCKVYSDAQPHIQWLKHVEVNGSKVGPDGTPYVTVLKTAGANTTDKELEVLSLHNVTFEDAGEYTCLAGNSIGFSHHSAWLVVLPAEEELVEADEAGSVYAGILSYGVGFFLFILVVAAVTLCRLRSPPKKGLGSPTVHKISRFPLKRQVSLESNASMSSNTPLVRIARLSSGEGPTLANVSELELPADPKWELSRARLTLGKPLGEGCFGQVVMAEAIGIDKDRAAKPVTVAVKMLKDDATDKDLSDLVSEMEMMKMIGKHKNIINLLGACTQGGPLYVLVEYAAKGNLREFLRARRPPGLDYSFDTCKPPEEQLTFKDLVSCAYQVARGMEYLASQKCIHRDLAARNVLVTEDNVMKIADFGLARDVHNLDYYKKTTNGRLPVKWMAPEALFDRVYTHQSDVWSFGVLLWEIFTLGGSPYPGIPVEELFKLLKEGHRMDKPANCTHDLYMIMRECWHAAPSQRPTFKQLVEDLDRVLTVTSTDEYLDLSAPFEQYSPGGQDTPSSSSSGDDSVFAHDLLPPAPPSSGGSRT
Sequence of Jak2 (O60674 whole entry, looked up, the tested form may be a part): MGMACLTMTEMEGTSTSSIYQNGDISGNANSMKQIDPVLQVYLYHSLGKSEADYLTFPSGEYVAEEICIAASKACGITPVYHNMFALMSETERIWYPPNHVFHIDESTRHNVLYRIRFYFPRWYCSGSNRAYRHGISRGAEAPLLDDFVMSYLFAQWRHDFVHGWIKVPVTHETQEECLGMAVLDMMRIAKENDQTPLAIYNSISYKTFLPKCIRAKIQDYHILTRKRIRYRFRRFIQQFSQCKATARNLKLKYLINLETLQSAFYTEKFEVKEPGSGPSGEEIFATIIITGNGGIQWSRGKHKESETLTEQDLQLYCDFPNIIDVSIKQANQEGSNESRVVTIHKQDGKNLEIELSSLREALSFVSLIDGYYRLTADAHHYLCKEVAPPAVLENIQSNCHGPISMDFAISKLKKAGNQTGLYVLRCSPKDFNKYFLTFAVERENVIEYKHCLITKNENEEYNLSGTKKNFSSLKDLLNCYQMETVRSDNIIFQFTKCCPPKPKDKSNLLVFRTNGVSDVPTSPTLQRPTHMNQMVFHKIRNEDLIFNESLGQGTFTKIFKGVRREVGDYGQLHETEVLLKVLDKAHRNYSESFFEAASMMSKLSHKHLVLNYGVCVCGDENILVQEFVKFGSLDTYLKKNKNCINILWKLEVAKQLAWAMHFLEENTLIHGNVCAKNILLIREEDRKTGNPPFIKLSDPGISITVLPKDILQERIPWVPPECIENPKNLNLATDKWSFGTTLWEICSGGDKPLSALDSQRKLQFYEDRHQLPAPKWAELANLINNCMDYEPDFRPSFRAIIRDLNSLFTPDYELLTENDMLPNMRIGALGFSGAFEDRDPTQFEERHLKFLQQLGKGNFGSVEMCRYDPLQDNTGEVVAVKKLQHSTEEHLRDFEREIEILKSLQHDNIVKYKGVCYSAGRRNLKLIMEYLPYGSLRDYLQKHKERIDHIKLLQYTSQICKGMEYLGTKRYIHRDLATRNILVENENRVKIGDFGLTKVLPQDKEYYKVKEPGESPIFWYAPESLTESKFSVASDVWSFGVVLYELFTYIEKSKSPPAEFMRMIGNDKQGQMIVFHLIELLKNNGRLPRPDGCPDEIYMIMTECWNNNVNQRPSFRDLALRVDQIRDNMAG
Sequence of Fyn (P06241 whole entry, looked up): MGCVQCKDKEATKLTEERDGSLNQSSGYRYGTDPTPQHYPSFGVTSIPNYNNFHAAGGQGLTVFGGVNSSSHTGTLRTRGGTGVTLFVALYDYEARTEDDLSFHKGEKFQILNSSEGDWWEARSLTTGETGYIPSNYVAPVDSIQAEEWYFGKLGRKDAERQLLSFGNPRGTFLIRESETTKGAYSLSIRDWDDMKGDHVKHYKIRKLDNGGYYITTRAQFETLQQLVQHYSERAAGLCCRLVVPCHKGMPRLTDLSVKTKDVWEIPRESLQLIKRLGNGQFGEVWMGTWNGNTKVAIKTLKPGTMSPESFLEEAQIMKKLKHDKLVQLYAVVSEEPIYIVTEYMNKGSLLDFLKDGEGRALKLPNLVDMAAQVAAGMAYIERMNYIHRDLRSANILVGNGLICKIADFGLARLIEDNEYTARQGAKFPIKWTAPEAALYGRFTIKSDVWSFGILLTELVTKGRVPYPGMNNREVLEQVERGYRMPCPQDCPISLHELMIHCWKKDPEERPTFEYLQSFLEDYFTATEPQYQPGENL
Sequence of Hck (P08631 whole entry, looked up): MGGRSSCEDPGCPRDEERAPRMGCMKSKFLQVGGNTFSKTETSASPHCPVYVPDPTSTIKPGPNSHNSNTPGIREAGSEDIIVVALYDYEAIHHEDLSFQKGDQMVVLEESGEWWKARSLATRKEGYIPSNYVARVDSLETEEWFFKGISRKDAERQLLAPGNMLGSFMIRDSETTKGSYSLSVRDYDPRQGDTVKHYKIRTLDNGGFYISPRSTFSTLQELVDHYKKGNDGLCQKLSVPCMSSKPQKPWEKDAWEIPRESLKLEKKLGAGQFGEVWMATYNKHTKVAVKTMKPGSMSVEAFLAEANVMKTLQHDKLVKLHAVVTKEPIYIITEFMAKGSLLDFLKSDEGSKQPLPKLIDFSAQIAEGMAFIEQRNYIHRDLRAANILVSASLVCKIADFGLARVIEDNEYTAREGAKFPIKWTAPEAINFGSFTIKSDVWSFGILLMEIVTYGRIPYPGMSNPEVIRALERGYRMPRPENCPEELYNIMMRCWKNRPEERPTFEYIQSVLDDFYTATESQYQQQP
Sequence of Grb2 SH2 (P62993 whole entry, looked up): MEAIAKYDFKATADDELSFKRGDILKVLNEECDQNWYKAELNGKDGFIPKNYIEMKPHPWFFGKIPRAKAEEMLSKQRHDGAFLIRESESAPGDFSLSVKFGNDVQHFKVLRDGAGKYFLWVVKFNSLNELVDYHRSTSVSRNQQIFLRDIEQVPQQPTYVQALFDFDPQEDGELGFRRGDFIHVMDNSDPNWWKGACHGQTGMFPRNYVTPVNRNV

Sequence	SH2 binding enrichment (c-Src SH2)	SH2 binding enrichment (SHP2-C SH2)	SH2 binding enrichment (Grb2 SH2)	phosphorylation enrichment (EPHB1)	phosphorylation enrichment (AncSZ)	phosphorylation enrichment (MERTK)	phosphorylation enrichment (EPHB2)	phosphorylation enrichment (Fes)	phosphorylation enrichment (Fer (mouse))	phosphorylation enrichment (FGFR1)	phosphorylation enrichment (Hck)	phosphorylation enrichment (Fyn)	phosphorylation enrichment (FGFR3)	phosphorylation enrichment (c-Src)	phosphorylation enrichment (c-Abl (mouse))	phosphorylation enrichment (Jak2)
ENEGTYVCIAT [ADAMTSL3_Y1365]	0.395	0.6	0.74	1.73	1.46	0.662	1.16	1.38	1.3	1.29	1.08	1.44	1.45	1.62	0.852	1.1
EPDSLYGCGGG [ATM_Y2019]	0.619	0.854	0.977	0.663	1.01	0.6	0.766	1.26	1.06	0.619	2.94	2.06	0.674	2.33	1.04	1.11
EPFEVYRIVPE [IRF8_Y110_K108E_YF]	0.521	0.535	0.916	0.662	1.05	0.62	0.72	1.03	0.411	1.25	2.37	3.41	1.03	3.68	0.798	0.882
EPNSRYTFKLE [USH2A_Y3745_YF]	0.476	0.669	0.818	0.479	0.808	0.373	0.448	0.963	0.397	0.379	0.393	0.408	0.596	0.365	0.658	0.76
EPSVPYRGMVF [GLI3_Y104_T107M]	0.414	0.567	0.804	0.43	0.704	0.432	0.56	0.816	0.38	0.422	0.376	0.413	0.508	0.462	0.471	0.639
EPSVPYRGTVF [GLI3_Y104]	0.491	0.711	0.803	0.447	0.566	0.487	0.567	0.698	0.424	0.447	0.441	0.545	0.478	0.46	0.534	0.783
EPYELYCEMGS [CBL_Y371_Q367P]	0.695	0.564	1.11	5.73	3.71	3.54	6.42	1.74	3.52	3.54	4.22	4.13	3.14	4.82	2.36	1.61
EQKKYSNAMKK [SCN5A_Y1495_Y1495S]	0.646	0.627	0.868	0.326	0.498	0.29	0.333	0.53	0.247	0.304	0.467	0.322	0.459	0.262	0.469	0.437
EQPNPYMVLDI [ROCK2_Y1197_S1194P]	0.732	0.785	0.869	0.653	1.15	2.06	0.571	1.07	2.87	1.13	1.23	2.46	1.09	3.03	0.575	1.06
EREYKYDAHNY [OAT_Y50_G51D]	0.703	0.74	0.781	0.412	0.757	0.429	0.575	1	0.559	0.445	0.498	0.434	0.574	0.367	0.705	0.8
ERIEFYELDKK [PMM2_Y145]	0.708	0.626	0.728	0.652	1.05	0.393	0.554	1.09	0.742	0.395	0.588	0.484	0.76	0.49	0.771	0.892
ERIEFYELNKK [PMM2_Y145_D148N]	0.467	0.492	0.822	0.542	0.968	0.506	0.71	0.844	0.619	0.489	0.486	0.497	0.541	0.507	0.486	0.731
ESLRSYDVMDV [KCNQ2_Y562_P561S]	9.05	0.473	0.712	0.663	1.03	0.523	0.714	1.28	0.555	0.581	0.616	0.556	0.993	0.509	0.817	0.921
ESLSSYRESAK [APOC2_Y47_W48R]	0.556	0.795	0.858	0.252	0.63	0.391	0.317	0.529	0.314	0.382	0.305	0.342	0.456	0.303	0.495	0.487
ESLSSYWESAK [APOC2_Y47]	0.713	0.753	0.889	0.527	0.84	0.381	0.576	1.01	0.354	0.63	0.464	0.414	0.692	0.392	0.584	0.888
ESTPLYPMLFG [SCLY_Y280_F276S]	0.554	0.891	0.931	0.686	0.768	2.23	0.508	0.969	0.507	11.7	0.503	0.6	8.03	0.47	0.619	1.09
ETAENYLGFTA [HSPA9_Y181_H184Y_YF]	0.45	0.654	0.703	0.743	1.17	0.514	0.633	1.1	0.486	0.578	0.53	0.505	0.807	0.569	0.879	0.855

Sequence	SH2 binding enrichment (c-Src SH2)	SH2 binding enrichment (SHP2-C SH2)	SH2 binding enrichment (Grb2 SH2)	phosphorylation enrichment (EPHB1)	phosphorylation enrichment (AncSZ)	phosphorylation enrichment (MERTK)	phosphorylation enrichment (EPHB2)	phosphorylation enrichment (Fes)	phosphorylation enrichment (Fer (mouse))	phosphorylation enrichment (FGFR1)	phosphorylation enrichment (Hck)	phosphorylation enrichment (Fyn)	phosphorylation enrichment (FGFR3)	phosphorylation enrichment (c-Src)	phosphorylation enrichment (c-Abl (mouse))	phosphorylation enrichment (Jak2)
ETKENYGKTLK [CHL1_Y291]	0.664	0.562	1.16	0.348	0.526	0.383	0.297	0.541	0.351	0.325	0.498	0.61	0.508	0.433	0.414	0.504
ETKGDYEKILV [ANXA1_Y335]	1.08	0.54	0.815	0.713	1.16	0.454	0.625	1.17	1.04	0.548	0.651	0.506	0.682	0.523	0.82	1.01
EVGRVYLFLQP [ITGA2B_Y360]	0.417	0.737	0.726	0.838	1.18	0.34	0.676	1.51	0.627	0.401	0.445	0.379	0.676	0.409	0.884	1.3
EVKRLYGSVCD [TC2N_Y154]	0.56	0.744	0.714	0.529	0.866	0.515	0.585	1.16	0.543	0.475	0.61	0.695	0.703	0.656	0.849	1.06
EVLKNYSQQKD [GOLGA4_Y1551_N1552S]	0.501	0.782	0.887	0.419	0.545	0.458	0.456	0.609	0.417	0.404	0.476	0.438	0.56	0.433	0.494	0.657
EVTQDYGLDPK [FH_Y110_N107T]	0.461	0.648	0.672	0.606	1.32	0.528	0.637	1.36	0.625	0.558	0.574	0.513	0.902	0.504	0.842	1.06
EVVGKYSVHNA [MLH1_Y183_R182K]	0.455	0.842	0.954	0.363	0.612	0.374	0.363	0.697	0.426	0.352	0.388	0.428	0.449	0.438	0.527	0.569
EYKKKYSDADI [CKAP5_Y1860]	0.435	0.614	0.819	0.393	0.709	0.383	0.474	0.819	0.399	0.404	0.367	0.442	0.475	0.371	0.637	0.671
EYYENYIEELK [PARP4_Y218_F215Y]	1.04	0.706	2.13	1.09	2.04	0.38	0.967	1.29	0.706	4.75	0.554	0.648	3.7	1.01	0.775	1.11
FADIAYNFHHG [PAH_Y166_R169H_YF]	0.566	0.564	0.62	0.427	0.686	0.406	0.524	0.725	0.483	0.515	0.528	0.704	0.478	0.501	0.354	0.43
FALAEYTEVKT [ALDH1A3_Y497_YF]	1.9	0.506	0.861	0.59	1.03	0.45	0.475	1.11	0.567	0.894	0.635	0.719	0.903	0.621	0.757	0.765
FARNSYVAGQF [G6PD_Y107_YF]	0.442	0.517	0.81	0.321	0.662	0.427	0.398	0.712	0.36	0.503	0.501	0.489	0.522	0.408	0.442	0.522
FCRIMYDIFPF [INTS13_Y67_YF]	0.8	0.862	0.93	2.66	1.71	4.83	2.61	1.74	1.18	0.531	3.11	1.31	0.743	3	1.38	1.57
FFRDGCMPRQF [GSS_Y270_Y270C_YF]	0.506	0.496	0.849	0.533	0.863	0.386	0.518	1.2	0.489	0.416	0.497	0.464	0.606	0.463	0.717	0.949
FFWDGYMPRQF [GSS_Y270_R267W_YF]	0.81	0.782	1.05	0.601	1.12	0.398	0.551	1.19	0.504	0.481	0.471	0.349	0.735	0.43	0.734	3.7
FGDTPYIPFRD [CDC14C_Y132]	0.602	0.757	0.809	0.495	0.764	0.445	0.458	0.905	0.542	0.522	0.54	0.55	0.662	0.781	0.589	0.646
